Measured values published in the supplement of paper PMC12455559.

assay: purified protein yield per well (BCA); higher = higher soluble expression
Experimental: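 Candidate PET hydrolases were expressed in E. coli C41(DE3) in 2 mL autoinduction cultures in 24-deep-well plates, Ni-bead purified and released by SUMO protease cleavage on an OT-2 robot. Yield per well was measured by BCA; values below 25 ug (0.1 mg/mL) are below the detection threshold. Melting temperature was measured by differential scanning fluorimetry with Sypro Orange, ramping from 25 C at 0.3 C/step.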

Purified protein yield per well, < 25 µg:
ADNPYQRGPDPTLAGVAASRGPFATAQMSVAPGNGFNGGTVYYPTDTSAGTWGAVAIVPGYTALFADEEAWMGPWLSSFGFVVIGIETNSRTDYDAARGTQLLAALDYLTQRSPVRDRVDTSRLSVIGHSMGGGGVVYASEHRPSLKAAVALAPFSPSQNMSTDQVPTMVMAGQNDTVVTPSYLDGLYATMPAAAQSDFVQIAGADHVYYTHPQSTEMRLLIPWLKIFVDNDTRYTQFLCPSLADPSGISIYHSKCPYVPPGGTTSGGTTSGGTTTGGTTTGGTTTGGTTTGGTTTGGTVGGGTTSGGTSGGACTATYTTVNTWSGGFQGEVKVTAGGQPISGWTVRWTLGSGQSISQVWNGAVTTSGSDVSVGNVSYNGSLQPSTSTTFGFLGAGAPTDASLSCTSP [ESM049]
ADNPYQRGPDPTRSSVAASRGTFATAQVGVPAGNGFGGGVIYYPTDTSQGTFGAVAIVPGYTAKWAAEGAWTGPWLASFGLVVIGIDTNSANDFDVARDRQLPAALDYLAQRGSVRGRVDTTRLAAMGHSMGGGGALNAALRRPSSKAAVGSAPYKPSGNLASDRVATLLLAGQNDTTVTPSYVDGLHRSIPATTEKGYVELSGAGHAFPTRANSTQMRVVTPWLKVFLDDDARYSQFLCPLMDSAGINRYGSTCPLLPPDGSTGSSSSLVGSGFGKCLDAGAGQDRSKVTITSCTGGGGQKWVFNTNGTITDPQSGRCLDVDARGTADNTAVATWTCHGESNQVWTRRA [ESM189]
ADNPYQRGPDPTVASVAATRGPFATAQLTVPAGNGFGGGYLYYPTDTSQGTWGAVAIVPGYSALFANEEAWMGPWLASFGFVVIGVETITRTDGADARATELLAALDYLTQRSAVRDRIDATRLAVMGHSAGGAGTILAAEQRPSLKAGVGLAPGTPGSLSLATDKVPMMVVGGQTDPTVTPAYLDNLYAGMPATTPSDFVQIAGADHLFFTRANNTEMKVLIPWLKIFLDNDTRYTQFLCPSLADPSGISLYRSKCPYLPPGTPSPSPSVSPSNPAAGCTASYRTVGSWPGGFQGEVTVTAGGAALNGWTVGWTLGSGQTITQVWNGTLTTSGSAVTVRNASYSGSVPAGGSITFGFLAAGTPSVPALTCAG [ESM028]
ADNPYQRGPDPTVASVAATRGTFATAQLTVPAGNGFGGGYIYYPTDTGHGTWGAVAIVPGYSALFADEEAWMGPWLASFGFVVIGVETITRSDGADARATELLAALDYLTQRSAVRDRVDPTRLAVMGHSAGGAGTILAAERRPSLKAAVGLAPGTPGTLSLATDKVPMMVIGGQTDPTVTPAYLDNLYAGMPTTTPSDFVQIAGADHLFFTRANNTEMKVLIPWLKIFLDNDTRYTQFLCPSLADPSGISLYRSKCPYLPPGTTSPSPPSPSPSSPSQSVSPSTPVTGCTAGYRTVGSWPGGFQGEVTVTAGSAAISGWTVGWTLGSGQTITQLWNGALTTSGSAVTVRNASYSGSVPAGGSVVFGFLANGTPSAPVLACASR [ESM027]
ADNPYQRGPDPTVASVAATRGTFATAQLTVPAGNGFGGGYVYYPTDTSQGTWGAVAIVPGYSARFADEEAWMGPWLASFGFVVIGVETITRTDGADARATQLLAALDYLVGQSPVRDRVDPARLAVMGHSAGGAGTIIAAERRPSLRAAVGLAPGTPGSLSLATDRVPMMVIGGQTDPTVTPSYLDNLYATVPAATPSDFVQIAGADHLFFTRANNTEMKVLIPWLKIFLDSDTRYTSLLCPSLADPSGISLYRSKCPYVPPGTTSPSPSSPSPSSPGPPVPVAACTATYRTVNAWPGGFQGEVVVTAGGTAITGWTVRWTLGSGQTISQLWNGNLTTSGSAVTVDSAAYNGSVPPAGSVVFGFLATGSPTTPAPVCASP [ESM046]
ADNPYQRGPDPTVASVAATRGTFATAQLTVPPGNGFGGGYIYYPTDTSHGTWGAVAIVPGYSALFANEEAWMGPWLASFGFVVIGVETNTRSDGADARATELLAALDYLTQQSAVRDRVDAGRLAVMGHSAGGAGTILAAERRPALKAAVGLAPGTPGSLSLATDKVPMMVIGGQTDPTVTPAYLDNLYAGMPTTTPSDFVQIAGADHLFFTRANNTEMKVLIPWLKIFLDNDTRYTQFLCPSLADPSGISLYRSKCPYLPPGTTSPSPSSSVTPSSPSSPSSPSTGCTAGYRTVGQWPGGFQGEVTVTAGSAAISGWTVNWTLGSGQSVTQLWNGTLTTSGSAVTVRNASYSGSVPAGGSVVFGYLADGTPSTPLLTCTGQ [ESM032]
ADNPYQRGPNPTLSSVRAGSGPYATTSTTVARSAVSGFGGGTVYYPTSTSDGTFGAVAMCPGYTATKESLAWFGPRVASHGFVVFIIDTVTTSDQPAQRGDELLAALDHLTRTSSVRSRIDASRLAVAGHSMGGGGTLEAAKDRPGLRAAVPLAPWNTTKNWSGNRVPTLIIGGQSDTIAAVSSHAVPFYTSLPTTPDKAYLE [DP074]
ADPGTGGGNGGGNTCQEDCGFERGPDPSVSMLEARNGPFSVRTSRVSGLVSGFGGGTIHYPTGQSGTMGAIVVIPGFVSAESSIDWWGSQLASHGFVVMTIDTNTGFDQPPSRARQINAALDYLVDQNRASGSPVNGMIDTSRLGVIGWSMGGGGTLRVATEGRIKAAIPLAPWDTSSRQFRSVQAPTLIFACGSDLIAPVRSHASPFYNALPNGLDKAYFEISRGSHYCANGGNTNNSRLSRLGVSWMKLHLDQDQRYNQFICGPRHESDRSISEYRGNC [ESM181]
ADSPYQRGPDPTPASVAATRGPFATTQATVPAGNGFNGGYVYYPTDTSQGTWGAVAIVPGYSALFANEEAWMGPWLASFGFVVIGIETNSRSDGADARATQLLAALDYLTRTSPIRDRVDANRLGVMGHSAGGAGTLLASLRRPTLKTAVGLAPGTPGNNLNMSTTQVPTMLLSGQNDGTVTPSYVQGIYNTLPAGVEHAWAELAGNDHLSFTRSNPTEMRLLIPWLKTFLDNDTRYTQFLCPLGNSTGVSRYNATCPLVPPDGPTTPPTSSPPTSAPPTTSAPTTPPPSGAPCTATYRTVNAWSGGFQGEVTVTAGTAAINGWTVTWGLNNGQSISQVWSGTLSTSGSTATIRNVSYNGSLAPGGTTSFGFLGSGTPAATSPTCASP [ESM025]
AEDNPHERGPAPTQQSIEAEKGPFEVDKVTVPGGDGFAGGTIYFPKDTSKGKFGGVAISPGFMSFEAMVSWYGPRLASQGFVVFTIGTFTPMDIPSSRADQLLASLKFLVEKSPAKDRVDGTRLALMGHSMGGGGTLHAAARTPGLQAAIPLTPWELTSDFSKVQVPTLVFTGQADFVAPASMGKSFYQSIPDSTEKGYVELAGGSHFDPLFPNVTYAKYSISWLKRFVDNDTRYDQFLCPVPKDPKLSAIEETCPLG [DP013]
AENPYERGPDPTESSIEASRGSFAVSQTSVSSLAVIGFGGGTIYYPTSTAQGTFGAVAISPGFTATQSSIAWIGPRLASQGFVVFTIDTNTIYDQPDSRGDQLLAALDYLTQRSDVRSRIDTSRLAVAGHSMGGGGSLEAAQDRPSLQAAVPLAPWNTQKSWSSLRVPTFIIGGESDTVAPVASHSIPFYTSIPASAEKAYMELDNASHFFPNTANTTMAKYTISWLKRFVDNDTRYEQFLCPAPDDRTISDYRDTCPHA [TEP129]
AENPYQRGPDPTPASVSANRGSFATTQVSVPSGNGFGGGIIYYPTDTSQGKFGAIAIVPGYTATWAAEGAWMGHWLASFGFVVIGIDTNNRNDWDNARGQQLLAALDYLTQRSSVRDRVDATRAAVMGHSMGGGGAAYASLQRPTLKTSVGLAPASFSQNLTTTRVPTMLLSGQNDGTVTPSSVLNLYNGIPAGVEKAYLELTGAGHGFPTSNNPTMMRVVIPWFKVFIDSDTRYTQFLCPLSNGNGIRSYQSTCPLVPSTPPTSTTTSTTTTTTTTTTTTTTTTSTSTTTTTPQPGGACSAVFRTTNSWPGGYQAEVTVTAGDSGVSGWTTHWTLGSGESVSQVWNGALTVSGSSVSVRNVSYNGSLAPNRSTTFGFIGGGAPPTSPFTCTSP [ESM029]
AETSYENGPDPTSSSIEAVKGPFEVSTQTVSSYSVRDFGGGTIYYPASSVEGGYGAVAISPGYTARKSSIAWLGSRLASQGFVVFTIDTKTTSDRPASRGDQLLASLDYLTENSRIKDQVDPNRLAVMGHSMGGGGVFEAAKDRPELQGAIAMTPWNTNKTFSEVSTPTLIFGAQDDTVAPVSRHSIPLYSGLPSTTPRTYLELRGASHFAPNRSNTTIAAQSIAWLKAFLDEDRRYDQFLCPGPTTGIDLSDVRTSCPF [DP036]
AGEQEYRRGPDPTLASLQAQEGPFAYATVTVPDQATYDGGTIYYPTDTSQGTFGAIAISPGYTGYQNSIAWYGRLLASNGFVVFTIDVENTNYDQPNARGEQLLDALDYLTQTSSVRSRIDPNRLAVAGHSMGGGGALRASYLRPSLQASIPLTPYHTWKNWSWVTVPTMIFGAENDTVTEVEDHAEPFYNTLTSAQERFYIELNAPADHLTPTSYDPTIGQYPRAFAKRYIDTDTRYEQFLCPPPAPSSAVEESRRACLGS [DP031]
AGNPHQRGPDPTPQSIVAEKGPFEVATAPAPAGNGFGGGTIYYPTDTSQGTFAGIAISPGFFGPQFSIDWYGPRLASQGFVVIAITTNALWDFPSQRADQLLAALKYLKQDSPAKDRLDGGRLGVMGHSMGGGGTMEAVLKDHSLKAAIPLTGWGITADYSGVQTPTMIIGAQFDVVAPDESYSIPFYKSLRPDLDKQFLQLAGGTHFSPNLPNTTIAKYSISWLKRFLDDDTRYQQFLCPVQPDPELSAHEATCHS [DP001]
AGNPYQRGPDPTVASVAATSGPFATAQLSVPPGNGFNGGMIYYPTDTSLGTWGAVAIVPGYTALFANEEAWMGPWLASFGFVVIGVETNSRTDYDVARGTELLAALDYLTQQSPVRDRVDATRLGVIGHSMGGGGVVYATEHRPSLKSAVALAPFSPSQTMATDTVPTMVMGGQNDTVVTPSYLSGLYATMPATTQSDFLQIAGADHVYYTHPNSVEMRILIPWIKTFIDNDTRYTQFLCPALADPTGVSIYQSKCPYVPGGSTPPPPTGGPVHAVGAGKCLDVPNSSTTGGTQLQIYTCDGQSNQTFTHTSTGALSVTDNGTTMCLDANGKGTTSGTKVIIWSCNGQTNQQWNVNSNGTITGVQSGLCLDVSGASTANGALVQLWTCNGQSNQQWKLG [TEP015]
ANPYERGPAPTLSSIQATTGPFATATTTVPSGNGFGGGTIYYPTDTSQGTFAAIAMSPGFFNTQSAISWYGKRIASQGFVFLTINTNTILDFPDSRATQLLAALDYLTQSSPVSSLIDSSRLGVMGYSMGGGGTLKASKTRPSLEAAVGVAPWHSTKNWSTNTVPSMMLGMQNDTVAPASSHAIPFYNSLPASIHKVYAEVRGASHSTPTSANTPIAQYSIAFLKQELDNDTRYTQFLCPAPAVGGTNPLSAYSSTCPF [DP067]
